From article PMC12274814 come the findings set out here.

For the data set, the target named is nsP13 helicase (SARS-CoV-2) (UniProt P0DTD1).

In turn, ssDNA-F (25-nt) yielded a K half of 53 nM.
